Here are results for three molecules from patent US20240360218A1 (KYMAB, published 2024).

In general, EC50 (read off the curve) refers to the concentration giving half of the maximal effect. Read a high EC50 (read off the curve) as lower potency in that assay. Usually koff stands for the first-order rate constant of dissociation.

One test concerns the target T1, PD-L1-Fc (R&D Systems) (UniProt Q9NZQ7 19-239).
T1 construct: not shown: Fc part of the bought fusion protein, not described
The test is described as follows: plate ELISA/DELFIA (Example 5d): biotinylated antibody on plate-bound PD-L1-Fc, streptavidin-Eu, TRF at 615 nm. The procedure: Excess protein was removed by washing with PBS-Tween (0.1% v/v) and the wells were blocked with 250 μL/well Pierce Protein Free Blocking Buffer (Thermo, 37572) for 1 hour, after which plates were washed as described previously. […] 100 μL each antibody dilution was added to the plates in duplicate and incubated for 1 hour at room temperature, before washing as stated above. Antibody binding was detected using streptavidin labelled Europium (Perkin Elmer) diluted 1/1000 in DELFIA Assay buffer (Perkin Elmer). Plates were washed with TBS (Tris buffered saline)-Tween (0.1% v/v) and 50 μL/well of DELFIA Enhancement solution (Perkin Elmer) was added to the plate. Time-resolved fluorescence was measured at 615 nm on an Envision plate reader (PerkinElmer).

Test [1] addresses T2, hPD-L1-his (in-house generated recombinant human PD-L1, his-tagged) (human, UniProt Q9NZQ7 19-238, limits assumed, biotinylated in the ELISA and AlphaScreen assays (site not stated)).
T2 construct: also called biotinylated hPD-L1-his; biotinylated His-PD-L1
Kind of test: SPR (ProteOn), anti-human Fc capture, 25 C. The procedure:
Label-free surface plasmon resonance (SPR) analysis was carried out on the ProteOn XPR36 (BioRad) array SPR machine. […] The data was analysed using the 1:1 model inherent to the ProteOn XPR36 analysis software.
SPR analysis was performed as per Example 4 with the following amendments: analysis was performed at 37° C. as well as 25° C. to increase the stringency of the assay.

T1 sequence (Q9NZQ7 19-239 limits assumed): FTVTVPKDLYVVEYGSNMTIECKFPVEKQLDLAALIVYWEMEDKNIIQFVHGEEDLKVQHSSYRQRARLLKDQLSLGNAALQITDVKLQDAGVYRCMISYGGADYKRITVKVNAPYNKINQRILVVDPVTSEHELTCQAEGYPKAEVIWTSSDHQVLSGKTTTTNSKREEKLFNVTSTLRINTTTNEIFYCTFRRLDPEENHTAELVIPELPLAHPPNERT
T2 sequence (Q9NZQ7 19-238 limits assumed): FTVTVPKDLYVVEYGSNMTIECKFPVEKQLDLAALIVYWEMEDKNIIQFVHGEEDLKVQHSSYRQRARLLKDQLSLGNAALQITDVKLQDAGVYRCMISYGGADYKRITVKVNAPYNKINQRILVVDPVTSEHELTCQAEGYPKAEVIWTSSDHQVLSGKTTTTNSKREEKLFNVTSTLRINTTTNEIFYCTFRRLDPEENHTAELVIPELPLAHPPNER

B1: 84G09 (antibody, human IgG1, V domains shown)
VH: EVQLVESGGGLVQPGRSLRLSCAASGFTFDDYAMHWVRQTPGKGLEWVSGISWKSNIIGYADSVKGRFTISRDNAKNSLYLQMNSLRAEDTALYYCARDITGSGSYGWFDPWGQGTLVTVSS
VL: DIQMTQSPSSLSASVGDRVTITCRASQSISSYLNWYQQKPGKAPKPLIYVASSLQSGVPSSFSGSGSGTDFTLTISSLQPEDFATYYCQQSYSNPITFGQGTRLEIK
notes: kappa light chain; also called clone 84G09
Turning to B1, the “EC50 (read off the curve)” value with PD-L1-Fc (R&D Systems) is roughly 0.4 nM.

B2: 1D05 (antibody, V domains shown)
VH: EVQLVESGGGLVQPGRSLRLSCAASGFTFDDYAMHWVRQVPGKGLEWVSGISWIRTGIGYADSVKGRFTIFRDNAKNSLYLQMNSLRAEDTALYYCAKDMKGSGTYGGWFDTWGQGTLVTVSS
VL: not shown
notes: kappa light chain; also called clone 1D05; anti-PD-L1 antibody 1D05
B2: the “EC50 (read off the curve)” value with PD-L1-Fc (R&D Systems) was roughly 0.4 nM.

B3: 413G05 (antibody, human IgG1, V domains shown)
VH: QVQLVESGGGLVKPGGSLRLSCAASGFTFSDYYMSWIRQVPGKGLEWVSYISTSGSTIYYADSVKGRFTISRDNAKNSLYLQMNSLRAEDAAVYHCARGITGTNFYHYGLGVWGQGTTVTVSS
VL: DIQMTQSPSSVSASVGDRVTITCRASQGINSWLAWYQQKPGKAPKLLIYAASTLQSGVPSRFSGSGSGADFTLTISSLQPEDFATYYCQQVNSFPLTFGGGTKVEIK
On to B3, for which the koff in test [1] came out at 6.23e-05 s⁻¹.
